Reference: publication PMC6400558 (2019)

B1: MBP-tagged Hook2 Hook+CC1 (N427) WT [human] / GST-tagged LIC1 (389–523 aa) [not stated] (parent complex)
chain 1: MSVDKAELCGSLLTWLQTFHVPSPCASPQDLSSGLAVAYVLNQIDPSWFNEAWLQGISEDPGPNWKLKVSNLKMVLRSLVEYSQDVLAHPVSEEHLPDVSLIGEFSDPAELGKLLQLVLGCAISCEKKQDHIQRIMTLEESVQHVVMEAIQELMTKDTPDSLSPETYGNFDSQSRRYYFLSEEAEEGDELQQRCLDLERQLMLLSEEKQSLAQENAGLRERMGRPEGEGTPGLTAKKLLLLQSQLEQLQEENFRLESGREDERLRCAELEREVAELQHRNQALTSLAQEAQALKDEMDELRQSSERAGQLEATLTSCRRRLGELRELRRQVRQLEERNAGHAERTRQLEDELRRAGSLRAQLEAQRRQVQELQGQRQEEAMKAEKWLFECRNLEEKYESVTKEKERLLAERDSLREANEELRCAQLQ
chain 2: TAAGRPVDASPRVPGGSPRTPNRSVSSNVASVSPIPAGSKKIDPNMKAGATSEGVLANFFNSLLSKKTGSPGGPGVSGGSPAGGAGGGSSGLPPSTKKSGQKPVLDVHAELDRITRKPVTVSPTTPTSPTEGEAS

Variants of: B1
Assay: GST pull-down, anti-MBP immunoblot, band intensity quantified; n = 3; parent: 0.95; read off a plot

Point of comparison: chain 1 Q143A, response ~0.22 Pulldown/Input. Against it:
- chain 1 I150A — lower, ~0.18 Pulldown/Input
